The source of these data is paper PMC9063451.

The target in assay [1] is BotI-like toxin (Buthus occitanus tunetanus) (UniProt P01488). The assay can be described thus: SPR.
Assay [2] has the same target.

B1: NbBotI-01 (VHH)
VHH: QVQLQESGGGLVQPGGSLRLSCAASGFSFTVYYMSWVRQTPGKGLEWVSGINRDGSIIDYADSVKGRFTISRDNAENTLYLEMNSRKSEDTALNDCTPHVRGGRYRTRGQGTQVTVSS
In general, Kd refers to the concentration at which binding is half-saturated. For orientation: koff means a measure of how fast the partners let go of each other. Broadly, the kon is a measure of how fast the partners come together. Lower therefore signals slower complex formation. In assay [1], B1 showed a Kd of 0.0953 nM, a koff of 0.000464 s⁻¹ and a kon of 4.87e+06 M⁻¹ s⁻¹.

B2: NbBotI-17 (VHH)
VHH: QVQLQESGGGPVQAGGSLRLSCAASGFTDSNKNVHWFRQVPGKQCERVSTITSNGVTNYADSVKGRFTASRDNSKNTVYLQMNTLKTEDTAVYYCVSVYIWESIGPSQRCRGQGTQVTVSS
For B2, the neutralisation of the toxin's lethality in Swiss mice (i.c.v. injection after 1 h preincubation at 37°C); 2 or 4 molar excess of Nb: 50% neutralisation at 6 and 7 LD50 (LD50 of toxin (50% neutralised)) in assay [2] turned out to be 7. In assay [1], this molecule displayed an equilibrium dissociation constant (Kd) of 4.72 nM, a koff of 0.0308 s⁻¹ and a kon of 6.52e+06 M⁻¹ s⁻¹.
